These results are taken from patent US20200316124A1.

Some results are limits rather than exact numbers.

The assay has as its target SCNN1A, Sodium Channel Epithelial 1 Alpha Subunit (Isoform 1, UniProt P37088-1) (human) (UniProt P37088). Put plainly: cell-based or functional assay.

SCNN1A, Sodium Channel Epithelial 1 Alpha Subunit, sequence (P37088 whole entry, canonical isoform, one chain of several): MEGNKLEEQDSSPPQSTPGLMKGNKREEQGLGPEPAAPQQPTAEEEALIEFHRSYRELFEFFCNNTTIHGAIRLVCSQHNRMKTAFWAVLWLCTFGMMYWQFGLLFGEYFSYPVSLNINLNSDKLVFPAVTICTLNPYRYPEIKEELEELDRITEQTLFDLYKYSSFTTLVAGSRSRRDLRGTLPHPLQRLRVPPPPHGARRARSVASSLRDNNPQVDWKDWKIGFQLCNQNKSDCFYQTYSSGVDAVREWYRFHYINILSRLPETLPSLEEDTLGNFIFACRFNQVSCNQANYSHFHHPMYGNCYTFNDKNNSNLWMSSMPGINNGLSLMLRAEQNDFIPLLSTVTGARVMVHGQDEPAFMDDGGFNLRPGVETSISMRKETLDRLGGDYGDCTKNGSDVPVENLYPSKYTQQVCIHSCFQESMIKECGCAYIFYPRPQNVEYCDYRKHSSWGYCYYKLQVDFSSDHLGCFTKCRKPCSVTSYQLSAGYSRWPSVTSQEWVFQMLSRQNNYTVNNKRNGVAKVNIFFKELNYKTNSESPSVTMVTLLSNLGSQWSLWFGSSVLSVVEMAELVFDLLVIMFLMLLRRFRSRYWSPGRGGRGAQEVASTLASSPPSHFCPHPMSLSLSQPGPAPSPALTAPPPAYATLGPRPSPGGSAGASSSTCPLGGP

Substance “SW.3G1 T-cell receptor (γ3δ1 TCR, TRGV3/TRDV1) of T-cell clone SW.3G1” returned a killing in long term killing assay, LCL.174 wildtype cells of 100% and a lysis in long term killing assay, LCL.174 SCNN1A knockout cell lines (gRNA-1 or gRNA-2) below 5%.
